Reference: patent US5625031
pIC50: −log10 of the molar value.

Columns and labels:
[1] = biological target: p34^cdc2 cell cycle regulatory kinase (Homo sapiens (Human)) (UniProt P06493)
[2] = biological target: p34^cdc2 cell cycle regulatory kinase (Homo sapiens (Human)) (UniProt P06493); test: Western blot densitometry of p34^cdc2 bound to p107 30mer-sepharose against immunoprecipitated p34^cdc2
[3] = biological target: p34^cdc2 cell cycle regulatory kinase (Homo sapiens (Human)) (UniProt P06493); test: IC50 column of Table 1 (ELISA based competition, competitor plate-bound p107 30mer)

Substance	histone H1 kinase specific activity of p34^cdc2 bound to p107 30mer-sepharose [1]	amount of p34^cdc2 associated, relative to that within the immune complexes [2]	pIC50 [3]
p107 30 amino acid peptide (residues 692-721 of p107, encompassing alpha-helix II)	1.4%	50 times	
p107 NC5mer pentapeptide (CAFYI)			4.89
